This note sets out measurements from US20240228562A1, “NOVEL LIPOCALIN MUTEINS SPECIFIC FOR CONNECTIVE TISSUE GROWTH FACTOR (CTGF)” (PIERIS PHARMACEUTICALS GMBH, priority 2021, published 2024).

One data set deals with T1, huCYR61 (Homo sapiens, UniProt O00622).
T1 sequence (O00622 25-381): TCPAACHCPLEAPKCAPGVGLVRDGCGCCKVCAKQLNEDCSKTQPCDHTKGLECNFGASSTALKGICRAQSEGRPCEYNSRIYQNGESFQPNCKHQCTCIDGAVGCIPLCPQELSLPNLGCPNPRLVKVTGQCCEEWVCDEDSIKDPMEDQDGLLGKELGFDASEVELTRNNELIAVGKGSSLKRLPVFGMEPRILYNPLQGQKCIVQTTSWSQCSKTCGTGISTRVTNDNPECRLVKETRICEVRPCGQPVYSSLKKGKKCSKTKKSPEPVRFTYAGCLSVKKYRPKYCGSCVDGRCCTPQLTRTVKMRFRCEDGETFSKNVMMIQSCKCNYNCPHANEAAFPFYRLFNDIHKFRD
The experiment in a line: Specificity ELISA (CCN proteins), huCYR61. The format is binding. The following applies: coated 1 μg/ml; assessed when human CTGF signal approached saturation. The protocol: (§1) Binding of muteins to closely related proteins of CTGF was tested by an ELISA assay. In detail, a 384-well plate suitable for fluorescence measurements (Greiner FLUOTRAC™ 600, black flat bottom, high-binding) was coated with 20 μl of human CTGF or the other members of the CCN protein family at a concentration of 1 μg/ml in PBS over night at 4° C. After washing with PBS with 0.05% Tween 20, wells were blocked with 100 μl blocking buffer containing 0.1% Tween 20 and 2% BSA (PBS-T/BSA) for 1 h at room temperature. 20 μl of serially diluted muteins starting at 1000 nM were incubated in PBS-T/BSA for 1 h at room temperature (RT).
(§2) The residual supernatants were discarded and 20 μl HRP-labeled anti-NGAL or anti-Strep-Tag antibody was added at a predetermined optimal concentration in PBS-T/BSA and incubated for 1 h at RT. After washing, 20 μl fluorogenic HRP substrate (QuantaBlu, Thermo) was added to each well, and the reaction was allowed to proceed for 2 to 60 minutes. The fluorescence intensity of every well on the plate was read using a fluorescence microplate reader (Tecan). When the signal for human CTGF approached saturation, the cross reactivity to the other proteins was assessed.

Another data set deals with T2, huWISP-1 (Homo sapiens, UniProt O95388).
T2 sequence (O95388 23-367): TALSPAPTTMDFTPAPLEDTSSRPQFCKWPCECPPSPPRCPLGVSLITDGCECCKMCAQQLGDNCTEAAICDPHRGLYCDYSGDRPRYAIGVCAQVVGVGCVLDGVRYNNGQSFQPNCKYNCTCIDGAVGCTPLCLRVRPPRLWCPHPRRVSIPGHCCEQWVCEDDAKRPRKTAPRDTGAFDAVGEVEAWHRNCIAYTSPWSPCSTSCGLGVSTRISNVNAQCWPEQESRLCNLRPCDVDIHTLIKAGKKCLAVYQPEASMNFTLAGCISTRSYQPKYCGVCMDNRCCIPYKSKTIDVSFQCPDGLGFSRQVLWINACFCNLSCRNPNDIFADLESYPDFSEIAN
Description: Specificity ELISA (CCN proteins), huWISP-1. The settings on record: coated 1 μg/ml; assessed when human CTGF signal approached saturation. The format is binding. How it is done:
as §1, §2

A further data set concerns the target T3, CTGF (Homo sapiens, UniProt P29279).
T3 sequence (P29279 27-349): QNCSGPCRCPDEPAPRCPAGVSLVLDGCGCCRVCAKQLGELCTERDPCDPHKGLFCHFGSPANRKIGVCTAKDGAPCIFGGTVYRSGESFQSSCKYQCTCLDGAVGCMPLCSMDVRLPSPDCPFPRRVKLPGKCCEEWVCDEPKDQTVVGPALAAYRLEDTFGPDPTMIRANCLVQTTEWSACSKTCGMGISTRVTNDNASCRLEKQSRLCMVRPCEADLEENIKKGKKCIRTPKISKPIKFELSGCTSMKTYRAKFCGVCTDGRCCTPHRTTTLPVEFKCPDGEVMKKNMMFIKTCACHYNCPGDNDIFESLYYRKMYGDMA
The experiment in a line: Specificity ELISA (CCN proteins), human CTGF. It counts as binding. The settings on record: coated 1 μg/ml, muteins from 1000 nM. How it is done: as §1, §2

For another data set, the target named is T4, huNOV (Homo sapiens, UniProt P48745).
T4 sequence (P48745 32-357): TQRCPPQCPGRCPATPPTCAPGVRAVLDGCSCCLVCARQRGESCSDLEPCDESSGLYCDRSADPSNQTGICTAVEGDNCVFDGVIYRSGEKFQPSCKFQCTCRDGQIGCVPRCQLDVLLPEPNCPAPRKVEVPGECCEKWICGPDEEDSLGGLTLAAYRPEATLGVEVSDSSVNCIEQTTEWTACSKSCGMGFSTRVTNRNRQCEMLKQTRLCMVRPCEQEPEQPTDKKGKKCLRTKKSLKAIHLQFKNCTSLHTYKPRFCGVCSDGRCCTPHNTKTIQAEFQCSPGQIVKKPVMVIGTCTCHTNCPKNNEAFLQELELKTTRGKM
The experiment in a line: Specificity ELISA (CCN proteins), huNOV. It counts as binding. The following applies: coated 1 μg/ml; assessed when human CTGF signal approached saturation. The protocol:
as §1, §2

The next data set concerns the target T5, huWISP-3 (Homo sapiens, UniProt O95389).
T5 sequence (O95389 24-354): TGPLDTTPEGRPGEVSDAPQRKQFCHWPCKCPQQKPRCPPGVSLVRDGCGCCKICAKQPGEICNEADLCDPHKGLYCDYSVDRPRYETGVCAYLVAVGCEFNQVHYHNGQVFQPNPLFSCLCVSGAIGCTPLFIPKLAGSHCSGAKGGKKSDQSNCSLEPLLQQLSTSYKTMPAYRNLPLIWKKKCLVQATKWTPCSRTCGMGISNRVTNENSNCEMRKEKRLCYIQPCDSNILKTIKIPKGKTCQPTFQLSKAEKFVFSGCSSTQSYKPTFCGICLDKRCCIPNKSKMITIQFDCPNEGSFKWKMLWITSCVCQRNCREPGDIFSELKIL
The experiment in a line: Specificity ELISA (CCN proteins), huWISP-3. The format is binding. The following applies: coated 1 μg/ml; assessed when human CTGF signal approached saturation. How it is done: as §1, §2

Data set [1] is described as follows: Thermal stability assessment by nanoDSC. It counts as physicochemical. The following applies: 1 mg/mL in PBS, scan 25-100° C. at 1° C./min. The method in brief: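 CTGF-specific lipocalin muteins at 1 mg/mL in PBS scanned from 25 to 100° C at 1° C/min by capillary nano-DSC. Where several transitions occur, the Tm of the major unfolding event is reported, along with onset temperature. Some muteins were expressed in E. coli, others in CHO cells.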

A further data set concerns the target T6, huWISP-2 (Homo sapiens, UniProt O76076).
T6 sequence (O76076 24-250): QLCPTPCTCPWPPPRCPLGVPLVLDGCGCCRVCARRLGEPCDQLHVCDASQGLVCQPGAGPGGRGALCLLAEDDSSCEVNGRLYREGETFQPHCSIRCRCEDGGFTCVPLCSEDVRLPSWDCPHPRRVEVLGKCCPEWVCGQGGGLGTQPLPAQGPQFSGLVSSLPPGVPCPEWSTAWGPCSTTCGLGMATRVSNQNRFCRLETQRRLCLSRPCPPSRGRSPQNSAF
Description: Specificity ELISA (CCN proteins), huWISP-2. The format is binding. The settings on record: coated 1 μg/ml; assessed when human CTGF signal approached saturation. How it is done: as §1, §2

B1: SEQ ID NO: 76: fusion protein comprising two CTGF-binding lipocalin muteins (protein)
chain: QDSTSDLIPAPPLSKVPLQQNFQDNQFQGKWYVVGLAGNAILREDKQPAKMFATIYELKEDKSYDVTSVRFEAKSCKYTIKTFVPGSQPGEFTAGYIKSAPGQTSTLVRVVSTNYNQHAMVFFKHVTQNREIFVITLYGRTKELTSELKENFIRFSKSLGLPENHIVFPVPIDQCIDGGGGGSGGGGSGGGGSQDSTSDLIPAPPLSKVPLQQNFQDNQFQGKWYVVGWAGNVKLREDKQPLKMSATIYELKEDKSYDVTEVVFEQKKCHYIIKTFVPGSQPGEFTAGDIKSPPGYTSSLVRVVSTNYNQHAMVFFKKVSQNREFFWITLYGRTKELTSELKENFIRFSKSLGLPENHIVFPVPIDQCIDG
modifications: fusion protein
As to B1, the “ELISA binding to huCYR61” value with huCYR61 is “No binding”. In addition, in the data set with huWISP-1, the “ELISA binding to huWISP-1” value is “No binding”. Also, the “ELISA binding to HUMAN CTGF” value in the data set with CTGF was “Binding”. Also, the “ELISA binding to huNOV” value in the data set with huNOV is on record as “No binding”. Moreover, the “ELISA binding to huWISP-3” value with huWISP-3 is “No binding”. The “ONSET MELTING” value in data set [1] was found to be 63 °C. The molecule also returned a TM in data set [1] (major transition) of 73 °C. In addition, the “ELISA binding to huWISP-2” value with huWISP-2 was “No binding”.
